Assay results: the supplement of paper PMC10065799, “High-throughput profiling of sequence recognition by tyrosine kinases and SH2 domains using bacterial peptide display” (eLife, 2023)

Assays:
[1] = tested on: AncSZ; assay: phosphorylation enrichment, bacterial display (enrichment ratio); higher = better substrate or ligand; peptides without Tyr show the background
[2] = biological target: EPHB1 (UniProt P54762); assay: as above
[3] = biological target: EPHB2 (UniProt P29323); assay: as above
[4] = biological target: FGFR1 (UniProt P11362); assay: as above
Chain of FGFR1 (P11362 whole entry, looked up): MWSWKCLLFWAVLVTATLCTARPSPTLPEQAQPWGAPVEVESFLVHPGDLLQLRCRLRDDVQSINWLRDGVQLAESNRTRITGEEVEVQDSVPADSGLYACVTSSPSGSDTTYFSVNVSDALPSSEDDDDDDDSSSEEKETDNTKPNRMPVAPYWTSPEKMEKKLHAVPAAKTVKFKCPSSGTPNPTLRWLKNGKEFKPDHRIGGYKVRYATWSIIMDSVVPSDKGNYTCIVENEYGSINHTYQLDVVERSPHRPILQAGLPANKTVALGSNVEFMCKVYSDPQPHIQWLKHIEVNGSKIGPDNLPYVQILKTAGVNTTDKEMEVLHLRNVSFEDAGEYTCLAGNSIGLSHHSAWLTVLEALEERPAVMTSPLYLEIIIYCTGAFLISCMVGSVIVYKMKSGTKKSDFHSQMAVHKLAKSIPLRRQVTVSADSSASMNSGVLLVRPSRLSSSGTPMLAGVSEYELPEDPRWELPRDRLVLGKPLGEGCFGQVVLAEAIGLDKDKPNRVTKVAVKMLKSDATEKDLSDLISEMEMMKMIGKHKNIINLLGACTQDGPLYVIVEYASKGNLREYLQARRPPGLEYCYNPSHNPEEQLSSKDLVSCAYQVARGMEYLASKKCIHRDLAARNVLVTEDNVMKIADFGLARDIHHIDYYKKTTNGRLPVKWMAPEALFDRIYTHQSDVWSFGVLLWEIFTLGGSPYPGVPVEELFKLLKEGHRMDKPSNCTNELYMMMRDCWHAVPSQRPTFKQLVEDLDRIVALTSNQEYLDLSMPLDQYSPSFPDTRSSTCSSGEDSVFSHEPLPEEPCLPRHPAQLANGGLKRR

[5] = biological target: FGFR3 (UniProt P22607); assay: as above
Chain of FGFR3 (P22607 whole entry, looked up): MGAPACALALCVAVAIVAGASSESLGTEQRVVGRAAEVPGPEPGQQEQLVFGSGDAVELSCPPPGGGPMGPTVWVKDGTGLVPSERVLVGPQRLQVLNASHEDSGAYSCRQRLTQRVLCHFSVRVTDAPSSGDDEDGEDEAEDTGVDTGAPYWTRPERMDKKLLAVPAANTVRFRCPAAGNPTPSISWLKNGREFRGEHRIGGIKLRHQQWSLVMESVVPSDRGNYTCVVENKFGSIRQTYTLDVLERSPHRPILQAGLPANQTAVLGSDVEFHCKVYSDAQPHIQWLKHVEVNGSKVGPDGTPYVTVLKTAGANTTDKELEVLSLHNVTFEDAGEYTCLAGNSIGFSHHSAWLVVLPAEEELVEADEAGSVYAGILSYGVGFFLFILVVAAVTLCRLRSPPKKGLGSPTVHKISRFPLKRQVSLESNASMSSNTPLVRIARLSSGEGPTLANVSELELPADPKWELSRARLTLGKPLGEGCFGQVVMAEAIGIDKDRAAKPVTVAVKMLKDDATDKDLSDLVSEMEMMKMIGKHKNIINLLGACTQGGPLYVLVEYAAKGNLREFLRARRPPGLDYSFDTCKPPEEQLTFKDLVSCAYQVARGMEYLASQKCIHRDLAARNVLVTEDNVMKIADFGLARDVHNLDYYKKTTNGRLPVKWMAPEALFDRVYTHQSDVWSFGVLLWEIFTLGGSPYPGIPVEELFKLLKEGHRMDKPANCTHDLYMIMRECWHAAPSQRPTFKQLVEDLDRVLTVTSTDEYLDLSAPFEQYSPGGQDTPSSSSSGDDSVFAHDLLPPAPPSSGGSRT

[6] = tested on: Fer (mouse); assay: as above
[7] = biological target: Fes (UniProt P07332); assay: as above
[8] = biological target: Fyn (UniProt P06241); assay: as above
Chain of Fyn (P06241 whole entry, looked up): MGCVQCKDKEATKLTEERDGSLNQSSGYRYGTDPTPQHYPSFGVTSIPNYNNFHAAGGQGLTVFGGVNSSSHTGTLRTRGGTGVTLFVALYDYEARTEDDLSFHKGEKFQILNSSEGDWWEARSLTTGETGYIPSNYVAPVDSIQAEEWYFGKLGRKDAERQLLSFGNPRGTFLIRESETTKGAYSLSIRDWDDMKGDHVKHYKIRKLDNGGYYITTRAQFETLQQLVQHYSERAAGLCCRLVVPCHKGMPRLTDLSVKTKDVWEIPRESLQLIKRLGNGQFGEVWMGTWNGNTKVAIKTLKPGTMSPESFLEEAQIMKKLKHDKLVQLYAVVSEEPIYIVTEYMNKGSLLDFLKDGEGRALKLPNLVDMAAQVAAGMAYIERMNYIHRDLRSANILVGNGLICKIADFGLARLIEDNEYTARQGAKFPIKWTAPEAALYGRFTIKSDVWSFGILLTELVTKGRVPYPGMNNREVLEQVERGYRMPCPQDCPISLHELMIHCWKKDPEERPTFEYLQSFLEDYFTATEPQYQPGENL

[9] = biological target: Hck (UniProt P08631); assay: as above
Chain of Hck (P08631 whole entry, looked up): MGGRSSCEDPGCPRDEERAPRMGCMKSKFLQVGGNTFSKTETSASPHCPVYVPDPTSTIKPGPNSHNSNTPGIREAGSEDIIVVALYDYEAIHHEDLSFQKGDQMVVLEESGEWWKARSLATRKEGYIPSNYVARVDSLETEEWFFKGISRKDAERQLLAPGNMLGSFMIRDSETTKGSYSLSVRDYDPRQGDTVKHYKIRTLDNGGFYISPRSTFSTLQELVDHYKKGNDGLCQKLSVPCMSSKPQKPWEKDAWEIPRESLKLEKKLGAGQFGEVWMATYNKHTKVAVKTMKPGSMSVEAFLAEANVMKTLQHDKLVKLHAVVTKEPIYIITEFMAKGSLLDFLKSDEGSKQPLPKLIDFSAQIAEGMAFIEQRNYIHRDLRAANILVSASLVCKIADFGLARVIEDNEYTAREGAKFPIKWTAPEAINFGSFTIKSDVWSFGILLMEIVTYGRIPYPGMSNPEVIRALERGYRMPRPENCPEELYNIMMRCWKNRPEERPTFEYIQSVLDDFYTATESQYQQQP

[10] = biological target: Jak2 (UniProt O60674); assay: as above
Chain of Jak2 (O60674 whole entry, looked up): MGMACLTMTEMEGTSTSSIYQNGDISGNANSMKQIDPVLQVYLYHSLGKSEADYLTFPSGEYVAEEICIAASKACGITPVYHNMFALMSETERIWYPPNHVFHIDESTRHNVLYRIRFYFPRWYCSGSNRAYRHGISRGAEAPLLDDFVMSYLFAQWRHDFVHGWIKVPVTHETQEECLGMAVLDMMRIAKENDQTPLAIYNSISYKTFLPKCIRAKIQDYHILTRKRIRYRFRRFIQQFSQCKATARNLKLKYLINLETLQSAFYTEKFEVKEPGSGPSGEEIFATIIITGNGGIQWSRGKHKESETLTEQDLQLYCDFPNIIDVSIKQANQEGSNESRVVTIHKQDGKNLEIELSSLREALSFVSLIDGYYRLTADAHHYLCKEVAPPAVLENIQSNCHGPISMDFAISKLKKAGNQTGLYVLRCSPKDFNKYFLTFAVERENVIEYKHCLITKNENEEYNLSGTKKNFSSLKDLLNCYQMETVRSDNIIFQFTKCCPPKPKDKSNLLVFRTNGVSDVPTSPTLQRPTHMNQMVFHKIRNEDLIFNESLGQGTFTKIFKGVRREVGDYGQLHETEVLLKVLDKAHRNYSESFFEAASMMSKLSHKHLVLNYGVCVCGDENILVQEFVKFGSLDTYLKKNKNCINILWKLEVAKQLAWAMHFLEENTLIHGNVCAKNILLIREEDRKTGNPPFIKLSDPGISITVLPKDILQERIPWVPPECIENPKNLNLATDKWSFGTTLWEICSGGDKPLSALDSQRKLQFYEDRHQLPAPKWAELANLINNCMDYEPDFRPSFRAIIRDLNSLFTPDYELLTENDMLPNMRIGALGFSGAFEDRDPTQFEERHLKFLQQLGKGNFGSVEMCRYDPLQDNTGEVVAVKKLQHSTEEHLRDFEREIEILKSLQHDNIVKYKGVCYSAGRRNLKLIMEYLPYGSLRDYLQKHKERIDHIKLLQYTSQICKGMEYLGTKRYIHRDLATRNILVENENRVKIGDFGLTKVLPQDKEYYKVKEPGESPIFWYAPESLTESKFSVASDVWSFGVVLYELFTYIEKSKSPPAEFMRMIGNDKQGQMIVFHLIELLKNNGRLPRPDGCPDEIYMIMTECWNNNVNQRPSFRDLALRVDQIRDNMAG

[11] = biological target: MERTK (UniProt Q12866); assay: as above
[12] = tested on: c-Abl (mouse); assay: as above
[13] = tested on: c-Src; assay: as above
[14] = biological target: Grb2 SH2 (UniProt P62993); assay: SH2 binding enrichment of the phosphorylated peptide, bacterial display (enrichment ratio); higher = better substrate or ligand; peptides without Tyr show the background
[15] = biological target: SHP2-C SH2; assay: as above
[16] = biological target: c-Src SH2; assay: as above
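Throughout, for SH2 binding enrichment of the phosphorylated peptide, bacterial display: peptide library displayed on the E. coli surface as eCPX fusions, selected cells deep-sequenced, score is each peptide's frequency after selection divided by its frequency in the input.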
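Throughout, for phosphorylation enrichment, bacterial display: 11-residue human phosphosite peptides and single-mutation variants displayed on the E. coli surface, counted by deep sequencing, each peptide's frequency after selection divided by its frequency in the unselected input library; frequency after pTyr selection over input frequency; kinase dosed for 20-30% of maximal phosphorylation in three min.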

Chain of EPHB2 (P29323 whole entry, looked up): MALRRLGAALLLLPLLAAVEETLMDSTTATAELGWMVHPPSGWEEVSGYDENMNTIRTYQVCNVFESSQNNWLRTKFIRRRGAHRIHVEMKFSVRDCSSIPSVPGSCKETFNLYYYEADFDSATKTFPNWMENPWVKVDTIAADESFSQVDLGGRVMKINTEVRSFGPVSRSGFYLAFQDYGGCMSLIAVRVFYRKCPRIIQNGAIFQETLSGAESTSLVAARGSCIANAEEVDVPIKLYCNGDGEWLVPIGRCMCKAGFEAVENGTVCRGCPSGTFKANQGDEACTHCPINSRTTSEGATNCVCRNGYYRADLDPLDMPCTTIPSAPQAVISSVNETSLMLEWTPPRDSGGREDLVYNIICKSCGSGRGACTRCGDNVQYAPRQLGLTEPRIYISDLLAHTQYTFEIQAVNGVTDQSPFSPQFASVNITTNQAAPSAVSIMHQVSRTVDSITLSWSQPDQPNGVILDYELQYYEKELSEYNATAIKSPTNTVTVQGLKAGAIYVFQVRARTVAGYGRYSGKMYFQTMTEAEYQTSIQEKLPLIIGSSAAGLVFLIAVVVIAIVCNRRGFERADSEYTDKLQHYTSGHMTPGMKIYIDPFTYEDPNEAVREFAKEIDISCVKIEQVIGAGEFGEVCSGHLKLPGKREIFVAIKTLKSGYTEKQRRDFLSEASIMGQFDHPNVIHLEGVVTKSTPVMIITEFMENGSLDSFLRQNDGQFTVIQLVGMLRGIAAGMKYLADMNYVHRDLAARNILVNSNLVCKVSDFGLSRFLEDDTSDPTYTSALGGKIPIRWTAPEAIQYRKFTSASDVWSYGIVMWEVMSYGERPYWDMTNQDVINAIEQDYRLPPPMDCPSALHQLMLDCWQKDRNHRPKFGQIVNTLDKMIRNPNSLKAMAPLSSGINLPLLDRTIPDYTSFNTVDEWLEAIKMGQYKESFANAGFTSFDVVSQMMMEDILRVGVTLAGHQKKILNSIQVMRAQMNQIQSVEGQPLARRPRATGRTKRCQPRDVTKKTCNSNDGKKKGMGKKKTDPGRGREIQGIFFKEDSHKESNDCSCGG

Row | Sequence | SH2 binding enrichment [14] | SH2 binding enrichment [15] | SH2 binding enrichment [16] | phosphorylation enrichment [1] | phosphorylation enrichment [2] | phosphorylation enrichment [3] | phosphorylation enrichment [4] | phosphorylation enrichment [5] | phosphorylation enrichment [6] | phosphorylation enrichment [7] | phosphorylation enrichment [8] | phosphorylation enrichment [9] | phosphorylation enrichment [10] | phosphorylation enrichment [11] | phosphorylation enrichment [12] | phosphorylation enrichment [13]
1 | TSSSSYFDEPV [ARFGAP3_Y356] | 0.762 | 0.827 | 0.569 | 1.1 | 0.549 | 0.576 | 0.486 | 0.749 | 0.506 | 1.01 | 0.478 | 0.5 | 0.98 | 0.421 | 0.841 | 0.47
2 | QRKRAYVEIEY [MAK16_Y282] | 0.675 | 0.718 | 4.61 | 0.696 | 0.362 | 0.463 | 0.623 | 0.663 | 0.441 | 0.752 | 0.585 | 0.672 | 0.73 | 0.416 | 2.01 | 0.68
3 | PSQRRYLYYYS [PTEN_Y174_V175L] | 0.84 | 1.48 | 1.06 | 1.77 | 0.616 | 0.697 | 0.873 | 0.937 | 0.92 | 1.4 | 1.04 | 0.737 | 1.99 | 4.1 | 0.659 | 0.64
4 | RQGKDYVGAIP [KDR_Y951] | 0.818 | 0.79 | 0.488 | 0.705 | 0.471 | 0.442 | 1.44 | 0.409 | 0.361 | 0.832 | 0.552 | 0.452 | 0.656 | 0.485 | 0.636 | 0.487
5 | FPCSVYVPDEW [INSR_Y1011] | 0.858 | 1.35 | 1.13 | 1.5 | 0.707 | 0.606 | 0.623 | 0.769 | 0.72 | 1.3 | 0.714 | 0.675 | 1.11 | 0.476 | 1.08 | 1.8
6 | DDPRTYQKFGF [OAS1_Y362_R361T_YF] | 0.78 | 0.531 | 0.523 | 0.825 | 0.519 | 0.469 | 0.473 | 0.544 | 0.423 | 0.928 | 0.717 | 0.526 | 0.773 | 0.439 | 0.607 | 0.693
7 | SFLFRYADDSF [RAB3C_Y50] | 0.988 | 1.21 | 0.589 | 1.01 | 0.545 | 0.515 | 0.475 | 0.582 | 0.414 | 1.01 | 0.45 | 0.525 | 0.835 | 0.45 | 0.582 | 0.434
8 | PLFSKYWPNHI [GREB1L_Y1560_R1558S_YF] | 0.917 | 0.736 | 0.459 | 2.32 | 1 | 0.925 | 0.823 | 0.724 | 0.907 | 1.33 | 0.805 | 0.801 | 0.933 | 1.13 | 1.47 | 1.38
9 | SAEEDYKADAK [KCNT1_Y876_M877K] | 0.874 | 0.618 | 0.477 | 1.18 | 0.635 | 0.502 | 0.464 | 0.684 | 0.465 | 1.28 | 0.534 | 0.536 | 1.07 | 0.497 | 0.831 | 0.513
10 | IDGLEYLHSPG [STK11_Y166_Q170P] | 0.819 | 0.558 | 0.491 | 0.931 | 0.377 | 0.584 | 0.467 | 0.543 | 0.426 | 0.69 | 0.44 | 0.454 | 0.746 | 0.431 | 0.5 | 0.37
11 | KWHREYNFKYV [RICTOR_Y835_S837F] | 1.49 | 1.35 | 1.22 | 1.04 | 0.454 | 0.392 | 0.358 | 0.564 | 0.357 | 0.786 | 0.394 | 0.397 | 0.693 | 0.376 | 0.528 | 0.38
12 | YAFQLYDLDPD [CHP2_Y123_R127P] | 0.986 | 1.71 | 1.28 | 1.66 | 1.52 | 0.998 | 1.65 | 1.37 | 0.916 | 1.37 | 4.7 | 2.56 | 1.32 | 2.01 | 0.78 | 5

More lines, main results first:

Row | SH2 binding enrichment [14] | SH2 binding enrichment [15] | SH2 binding enrichment [16] | Sequence | phosphorylation enrichment [1] | phosphorylation enrichment [2] | phosphorylation enrichment [3] | phosphorylation enrichment [4] | phosphorylation enrichment [5] | phosphorylation enrichment [6] | phosphorylation enrichment [7] | phosphorylation enrichment [8] | phosphorylation enrichment [9] | phosphorylation enrichment [10] | phosphorylation enrichment [11] | phosphorylation enrichment [12] | phosphorylation enrichment [13]
13 | 0.702 | 0.41 | 0.414 | FDEFRYRSFIK [CFTR_Y517_V520F_YF] | 0.775 | 0.417 | 0.39 | 0.498 | 0.526 | 0.556 | 0.764 | 0.467 | 0.511 | 0.497 | 0.422 | 0.454 | 0.419
14 | 0.978 | 0.714 | 0.579 | TLNVRHESVQA [CEACAM7_Y236_Y236H] | 0.564 | 0.38 | 0.44 | 0.451 | 0.39 | 0.374 | 0.59 | 0.378 | 0.366 | 0.831 | 0.348 | 0.415 | 0.466
15 | 1.03 | 0.833 | 0.704 | GTQCSYLLSRK [UGT3A1_Y123] | 0.634 | 0.427 | 0.554 | 0.482 | 0.441 | 0.43 | 0.676 | 0.329 | 0.392 | 0.655 | 0.436 | 0.569 | 0.42
16 | 0.644 | 0.681 | 0.49 | VSTAVYKRFAS [BEST1_Y148_P152A] | 0.715 | 0.693 | 0.647 | 0.507 | 0.48 | 0.398 | 0.77 | 0.449 | 0.511 | 0.725 | 0.489 | 0.716 | 0.555
17 | 0.942 | 0.653 | 0.448 | FSCLPYRRLAY [SLC52A2_Y305_G306R] | 0.95 | 0.613 | 0.547 | 0.656 | 0.758 | 0.5 | 0.671 | 0.691 | 0.663 | 0.837 | 0.621 | 1.22 | 0.766
18 | 0.8 | 0.603 | 0.994 | RTTIHYNYMCN [TP53_Y234_C229R] | 1.81 | 1.48 | 1.13 | 0.892 | 1.6 | 1.25 | 2.24 | 1.16 | 1.11 | 1.57 | 0.901 | 1.2 | 0.649
19 | 1.13 | 0.898 | 1.07 | CHKRTYKVTGL | 0.587 | 0.405 | 0.357 | 0.362 | 0.465 | 0.398 | 0.667 | 0.417 | 0.401 | 0.657 | 0.375 | 0.564 | 0.455
20 | 0.994 | 0.976 | 0.51 | RRMLQYLTVND [PPFIBP2_Y663] | 0.803 | 0.417 | 0.584 | 0.63 | 0.632 | 0.456 | 0.862 | 0.501 | 0.686 | 0.882 | 0.475 | 0.691 | 0.486
21 | 4.48 | 1.46 | 1.4 | TSSAIYMNLAS [GATAD2B_Y317] | 0.949 | 8.76 | 3.51 | 3 | 1.94 | 3.71 | 1.01 | 6.11 | 6.95 | 0.997 | 8.39 | 3.29 | 6.07
22 | 1.01 | 0.669 | 0.672 | RLAKTYKTTLE [ALB_Y377_E378K] | 0.564 | 0.324 | 0.509 | 0.513 | 0.446 | 0.624 | 0.632 | 0.253 | 0.388 | 0.72 | 0.365 | 1.18 | 0.441
23 | 0.794 | 0.732 | 0.458 | DDFNLYINVKL [MTHFD1_Y52_S49F] | 1.47 | 0.86 | 0.563 | 0.511 | 0.997 | 0.38 | 1.67 | 0.46 | 0.558 | 1.67 | 0.483 | 0.984 | 0.472
24 | 1.11 | 0.654 | 0.663 | TIMTDYNPNYC [ALK_Y1092] | 1.33 | 0.999 | 0.531 | 0.715 | 0.904 | 0.548 | 1.26 | 0.439 | 0.66 | 1.24 | 0.6 | 0.923 | 0.552
25 | 1.11 | 0.668 | 0.59 | WPQKLYNNFVN [MYO5C_Y526_L522P] | 0.795 | 0.407 | 0.546 | 0.445 | 0.518 | 0.377 | 0.884 | 0.439 | 0.528 | 0.725 | 0.505 | 0.687 | 0.626
26 | 1.17 | 1.28 | 0.966 | RFLERYIYNPE [HLA-DPB1_Y57_R61P] | 1.1 | 0.755 | 0.675 | 0.55 | 0.671 | 0.636 | 1.15 | 1.75 | 2.11 | 0.935 | 1.5 | 0.68 | 3.08
27 | 1.14 | 1.19 | 1.45 | FLAVGYHKPFI [IDS_Y225_H229Y_YF] | 0.701 | 0.359 | 0.416 | 0.381 | 0.647 | 0.435 | 0.8 | 0.38 | 0.456 | 1.29 | 0.428 | 3.35 | 0.39
28 | 1.01 | 0.86 | 0.445 | ASMAKYFASGI [ACADSB_Y372_E376G_YF] | 0.544 | 0.339 | 0.517 | 0.424 | 0.441 | 0.374 | 0.79 | 0.386 | 0.404 | 0.566 | 0.407 | 0.574 | 0.386
29 | 1.15 | 1.74 | 1.25 | FFLGAYDRFLP [SLC22A5_Y486_V481F_YF] | 1.5 | 0.756 | 1.13 | 0.503 | 0.782 | 1.04 | 1.46 | 1.99 | 3.38 | 1.02 | 3.38 | 0.842 | 3.75
